According to patent US20180312579A1 (Genentech, published 2018):
Numbering of substitutions follows the chain as printed.

Tests used:
[1] = molecular target: T1, human RSPO3 with C-terminal HA tag, stably expressed in 293 cells (human, UniProt Q9BXY4 22-272); assay: IHC, FFPE 293 cell pellet, RSPO3 Hi; - = not significant staining
T1 construct: Whole open reading frame expressed in HEK-293 cells (high, medium, low); FFPE pellets; also called hRSPO3; RSPO3 Hi
T1 sequence: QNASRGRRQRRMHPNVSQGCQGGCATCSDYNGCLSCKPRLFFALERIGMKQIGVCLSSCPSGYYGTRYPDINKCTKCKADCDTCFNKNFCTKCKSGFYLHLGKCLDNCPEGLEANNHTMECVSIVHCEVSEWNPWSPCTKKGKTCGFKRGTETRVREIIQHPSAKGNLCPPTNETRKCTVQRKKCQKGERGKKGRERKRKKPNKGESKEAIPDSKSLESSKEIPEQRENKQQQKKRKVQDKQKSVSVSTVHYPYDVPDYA

mouse RSPO2 [2] = molecular target: T2, mouse RSPO2 (mouse, UniProt Q8BFU0 22-205, limits assumed); assay: cell-based or functional assay
T2 sequence (Q8BFU0 22-205 limits assumed): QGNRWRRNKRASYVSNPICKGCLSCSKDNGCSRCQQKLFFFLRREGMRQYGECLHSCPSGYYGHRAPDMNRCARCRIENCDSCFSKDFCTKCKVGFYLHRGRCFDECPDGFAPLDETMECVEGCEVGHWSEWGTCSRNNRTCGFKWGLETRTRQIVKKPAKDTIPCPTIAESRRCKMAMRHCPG

cynomolgus RSPO2 [3] = molecular target: T3, cynomolgus RSPO2 (cynomolgus, UniProt G7PCH9 22-243); assay: cell-based or functional assay
T3 sequence (G7PCH9 entry or part of it): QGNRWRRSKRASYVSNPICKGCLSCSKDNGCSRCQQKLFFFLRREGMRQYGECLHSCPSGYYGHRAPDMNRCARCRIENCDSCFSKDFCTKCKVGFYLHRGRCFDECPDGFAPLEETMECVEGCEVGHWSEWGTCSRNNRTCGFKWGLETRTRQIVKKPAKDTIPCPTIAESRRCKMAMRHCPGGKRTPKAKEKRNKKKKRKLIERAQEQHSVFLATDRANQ

recombinant human RSPO3 [4] = molecular target: T4, recombinant human RSPO3 (human, UniProt Q9BXY4 22-272); assay: cell-based or functional assay
T4 sequence: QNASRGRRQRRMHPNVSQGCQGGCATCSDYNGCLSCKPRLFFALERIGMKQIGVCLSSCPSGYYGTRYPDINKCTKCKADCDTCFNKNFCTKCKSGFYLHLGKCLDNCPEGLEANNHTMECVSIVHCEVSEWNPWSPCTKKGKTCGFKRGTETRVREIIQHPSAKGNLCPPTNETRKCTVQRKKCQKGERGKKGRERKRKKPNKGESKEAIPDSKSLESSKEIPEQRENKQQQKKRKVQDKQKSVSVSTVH

cynomolgus RSPO3 [5] = molecular target: T5, cynomolgus RSPO3 (cynomolgus, UniProt A0A2K5UTQ7 22-273); assay: cell-based or functional assay
T5 sequence: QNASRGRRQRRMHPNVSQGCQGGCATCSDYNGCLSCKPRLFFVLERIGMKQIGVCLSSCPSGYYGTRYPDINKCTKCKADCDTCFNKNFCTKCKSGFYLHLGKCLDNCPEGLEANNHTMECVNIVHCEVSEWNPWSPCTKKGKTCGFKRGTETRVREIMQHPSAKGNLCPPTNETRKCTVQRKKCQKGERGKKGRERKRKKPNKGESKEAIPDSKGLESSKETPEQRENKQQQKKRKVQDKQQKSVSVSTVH

mouse RSPO3 [6] = molecular target: T6, mouse RSPO3 (mouse, UniProt Q2TJ95 22-277, limits assumed); assay: cell-based or functional assay
T6 sequence (looked up): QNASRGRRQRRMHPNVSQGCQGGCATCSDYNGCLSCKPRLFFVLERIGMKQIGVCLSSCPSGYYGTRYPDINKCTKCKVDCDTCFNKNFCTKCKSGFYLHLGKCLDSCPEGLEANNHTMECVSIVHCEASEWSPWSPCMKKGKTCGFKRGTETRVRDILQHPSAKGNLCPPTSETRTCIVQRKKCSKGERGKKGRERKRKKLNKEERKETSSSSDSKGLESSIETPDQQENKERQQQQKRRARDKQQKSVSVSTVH

recombinant human RSPO2 [7] = molecular target: T7, recombinant human RSPO2 (human, UniProt Q6UXX9 22-243); assay: cell-based or functional assay
T7 sequence (Q6UXX9 22-243): as the sequence (G7PCH9 entry or part of it) above, with A160V, P165L, A178T counted along it

recombinant human RSPO3 [8] = molecular target: T4, recombinant human RSPO3; assay: SPR (Biacore) with the Fab; table row RSPO3, Affinity (nM) Fab
Description: (§1) For kinetic measurements, two-fold serial dilutions of anti-RSPO Fabs were injected in HBS-P buffer (0.01M HEPES pH 7.4, 0.15M NaCl, 0.005% surfactant P20) at 25° C. with a flow rate of 30 μl/min. Association rates (kₒₙ) and dissociation rates (koff) were calculated using a simple one-to-one Langmuir binding model (BIAcore Evaluation Software version 3.2). The equilibrium dissociation constant (KD) was calculated as the ratio koff/kₒₙ.
(§2) Surface plasmon resonance was used to confirm binding specificities and affinities to human, mouse, and cynomolgus RSPOs. Fab fragments from antibody clones were digested, purified, and then assayed using a BIAcore™-2000 instrument for binding to recombinant proteins. Antibodies fell into three groups: those specific to RSPO2, those specific to RSPO3, and those with some degree of cross-reactivity (FIG. 5).

cynomolgus RSPO3 [9] = molecular target: T5, cynomolgus RSPO3; assay: as above
Description: as §1, §2

mouse RSPO3 [10] = molecular target: T6, mouse RSPO3; assay: as above
Description: as §1, §2

mouse RSPO2 [11] = molecular target: T2, mouse RSPO2; assay: SPR (Biacore) with the Fab; table row RSPO2, Affinity (nM) Fab
Description: as §1, §2

cynomolgus RSPO2 [12] = molecular target: T3, cynomolgus RSPO2; assay: as above
Description: as §1, §2

recombinant human RSPO2 [13] = molecular target: T7, recombinant human RSPO2; assay: as above
Description: as §1, §2

[14] = molecular target: T8, FLAG-tagged human RSPO3 (Genentech) (human, UniProt Q9BXY4 22-272); assay: competitive binding ELISA: titrated against biotinylated RNF43-Flag (RNF43-ECD) binding to plate-coated hRSPO3; signal = bound RNF43, normalized OD
T8 construct: also called hRSPO3; RSPO3 coated plates; not shown: FLAG tag
T8 sequence: T4 sequence

[15] = molecular target: T9, FLAG-tagged human RSPO2 (Genentech) (human, UniProt Q6UXX9 22-243); assay: competitive binding ELISA: titrated against biotinylated RNF43-Flag (RNF43-ECD) binding to plate-coated hRSPO2; signal = bound RNF43, normalized OD
T9 construct: also called hRSPO2; RSPO2 coated plates; not shown: FLAG tag
T9 sequence (Q6UXX9 22-243): as the sequence (G7PCH9 entry or part of it) above, with A160V, P165L, A178T counted along it

[16] = molecular target: T10, human RSPO2 with C-terminal HA tag, stably expressed in 293 cells (human, UniProt Q6UXX9 22-243); assay: IHC, FFPE 293 cell pellet, RSPO2 Hi
T10 construct: Whole open reading frame was expressed from a lentiviral vector in HEK-293 cells sorted for high, medium or low expression; formalin-fixed paraffin-embedded pellets; also called hRSPO2; RSPO2 Hi
T10 sequence (Q6UXX9 other isoform, or with tags, fused parts or gaps): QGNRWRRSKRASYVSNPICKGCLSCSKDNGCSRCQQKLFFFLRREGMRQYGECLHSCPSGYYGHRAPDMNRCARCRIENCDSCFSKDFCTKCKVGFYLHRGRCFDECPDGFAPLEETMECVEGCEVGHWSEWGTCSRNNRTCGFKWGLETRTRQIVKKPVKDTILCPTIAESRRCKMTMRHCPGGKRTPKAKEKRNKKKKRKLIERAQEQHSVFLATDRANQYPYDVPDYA

[17] = molecular target: T11, human RSPO4 with C-terminal HA tag, stably expressed in 293 cells (human, UniProt Q2I0M5 20-234); assay: IHC, FFPE 293 cell pellet, RSPO4 Hi; - = not significant staining
T11 construct: also called hRSPO4; RSPO4 Hi
T11 sequence (Q2I0M5 other isoform, or with tags, fused parts or gaps limits assumed): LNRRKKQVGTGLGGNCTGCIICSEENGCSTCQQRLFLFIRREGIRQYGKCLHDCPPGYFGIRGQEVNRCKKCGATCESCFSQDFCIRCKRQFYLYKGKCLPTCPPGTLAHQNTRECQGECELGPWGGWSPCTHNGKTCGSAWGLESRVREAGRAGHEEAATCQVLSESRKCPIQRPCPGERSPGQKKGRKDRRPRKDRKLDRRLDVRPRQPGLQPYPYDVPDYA

[18] = molecular target: T10, human RSPO2 with C-terminal HA tag, …; assay: IHC, FFPE 293 cell pellet, RSPO2 Low
[19] = molecular target: T10, human RSPO2 with C-terminal HA tag, …; assay: IHC, FFPE 293 cell pellet, RSPO2 Med
[20] = molecular target: T12, human RSPO1 with C-terminal HA tag, stably expressed in 293 cells (human, UniProt Q2MKA7 21-263); assay: IHC, FFPE 293 cell pellet, RSPO1 Hi; - = not significant staining
T12 construct: also called hRSPO1; RSPO1 Hi
T12 sequence (Q2MKA7 other isoform, or with tags, fused parts or gaps limits assumed): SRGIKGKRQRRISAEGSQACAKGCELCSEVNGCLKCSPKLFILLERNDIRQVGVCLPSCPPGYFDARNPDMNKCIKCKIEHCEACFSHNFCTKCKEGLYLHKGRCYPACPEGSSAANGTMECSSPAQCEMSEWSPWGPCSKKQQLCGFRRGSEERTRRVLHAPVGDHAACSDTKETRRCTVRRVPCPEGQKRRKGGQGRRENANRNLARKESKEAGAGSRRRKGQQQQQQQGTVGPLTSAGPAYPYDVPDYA

B1: 11F11 (antibody, V domains shown)
VH: QVQLQQSGPQLVKPGFSVKFSCKASGITFTEYYVTWVKQRAGQGLEWVGDIDPENGDTDYNQKFQGKATITADKSSSTAYMELSSLTSEDSAVYYCATGYDYAFDSWGQGTLVTVSS
VL: QPVLTQSPSASASLGASVKLTCTLSSQHSSYGITWLQQHPDKAPKCVMYLRSDGSHSKGDGIPDRFSGSSSGAHRYLSISNVQPEDEAIYFCVTYDSTVGVFGSGTQLTVP
notes: also called monoclonal antibody 11F11
binding result [1]: no binding
IC50, WNT luciferase reporter, bivalent antibody (mouse RSPO2 [2]): > 500 nM
IC50, WNT luciferase reporter, bivalent antibody (cynomolgus RSPO2 [3]): 1.9 nM
IC50, WNT luciferase reporter, bivalent antibody (recombinant human RSPO3 [4]): > 500 nM
IC50, WNT luciferase reporter, bivalent antibody (cynomolgus RSPO3 [5]): > 500 nM
IC50, WNT luciferase reporter, bivalent antibody (mouse RSPO3 [6]): > 500 nM
IC50, WNT luciferase reporter, bivalent antibody (recombinant human RSPO2 [7]): 0.179 nM

B2: 1A1 (Fab, V domains shown)
VH: EVQLVESGGGLVKPEGSLKLSCVASGFTFSDYFMSWVRQAPGQGLEWVAHIYTKTYNYATYYSGSVKGRFSISRDDSRNMVYLQMNNLRTEDTATYYCTTDEDWYFDFWGQGTQVTVSS
VL: QPVLTQSPSVSASLGASVKLTCTLSSQHSTNYIEWYQQHPDKSPKFLMQVRDGSHSKGDGTPDRFSGSSSGAHRYLSISNLQLEDEAIYYCGLSDVSLYLFGSGTQLTLL
notes: also called Fab of 1A1; 1A1 Fab
binding result (recombinant human RSPO3 [8]): no binding
binding result (cynomolgus RSPO3 [9]): no binding
binding result (mouse RSPO3 [10]): no binding
Kd (mouse RSPO2 [11]): 3.6 nM
Kd (cynomolgus RSPO2 [12]): 1.4 nM
Kd (recombinant human RSPO2 [13]): 2.9 nM

B3: Fab 26E11 (Fab, V domains shown)
VH: EVQLQESGPSLVKPSQTLSLTCSVTGDSITSGYWSWIRKFPGNKLEFMGYISFSGKTYYIPSLKSRVSITRDTSKNQYYLQLNSVTTEDTATYYCATYHGYGGPWFAYWGQGTLVTVSS
VL: DIKMTQSPSSMYASLGERVTITCKASQDIDSYLSWFQQKPGKSPKTLIYLTNRLIDGVPSRFSGSGSGQDYSLTINSLEYEDMGIYYCLQYDEFPVTFGAGTRLEIK
notes: Fab expressed in E. coli for crystallography; also called 26E11 Fab
Kd (recombinant human RSPO3 [8]): 0.7 nM
Kd (cynomolgus RSPO3 [9]): 2.43 nM
Kd (mouse RSPO3 [10]): 1.42 nM
Kd (mouse RSPO2 [11]): 66 nM
Kd (cynomolgus RSPO2 [12]): 62 nM
Kd (recombinant human RSPO2 [13]): 80 nM

B4: 5C2 (Fab, V domains shown)
VH: EVQLQESGPGLVAPSQSLSITCTVSGFSLTSYGVHWVRQPPGKGLEWLGVIWTGGSTNYNSALMSRLSISKDNSKSQVFLKMNSLQTDDTAMYYCARVDGYYYFDYWGQGTTLTVSS
VL: DIVMTQSTSSLSASLGDRVTISCRASQDISNYLNWYQQKPDGTVKLLIYYTSRLHSGVPSRFSGSGSGTDYSLTISNLEPEDIATYFCQQGDTLPPTFGGGTKLEIK
notes: also called Fab of 5C2; 5C2 Fab
Kd (recombinant human RSPO3 [8]): 17 nM
Kd (cynomolgus RSPO3 [9]): 70 nM
Kd (mouse RSPO3 [10]): 63 nM
binding result (mouse RSPO2 [11]): no binding
binding result (cynomolgus RSPO2 [12]): no binding

B5: 36D2 (Fab, V domains shown)
VH: QIQLQESGPGLVKPSQSLSLTCSVTGNSITSSDWSWIRQFPGKKLEWMGYMNYGGGTYYNPSLENRISITRDTSKNQFFLHLKSVTTEDTATYYCARERPHPYAYFDVWGQGIQVTVSS
VL: ELVFTQPQSVSGSLGQEISISCTRSSGNIGSNYVSWYQQQSSNKPRLLIYKFDQRPSGVPDRFSGSTDSSSNSGILTISRLQPEDEGDYYCLSGYDKYVFGSGTQLTLL
notes: also called Fab of 36D2; 36D2 Fab
binding result (recombinant human RSPO3 [8]): no binding
binding result (cynomolgus RSPO3 [9]): no binding
binding result (mouse RSPO3 [10]): no binding
Kd (mouse RSPO2 [11]): 5.5 nM
Kd (cynomolgus RSPO2 [12]): 11 nM
Kd (recombinant human RSPO2 [13]): 6.3 nM

B6: RNF43 (receptor)
chain: GFGRTGLVLAAAVESERSAEQKAIIRVIPLKMDPTGKLNLTLEGVFAGVAEITPAEGKLMQSHPLYLCNASDDDNLEPGFISIVKLESPRRAPRPCLSLASKARMAGERGASAVLFDITEDRAAAEQLQQPLGLTWPVVLIWGNDAEKLMEFVYKNQKAHVRIELKEPPAWPDY
notes: kept apart from the biotinylated tracer m34; not shown: FLAG tag and any linker to it
IC50 (read off the curve) [14]: ~0.5 µg/mL
IC50 (read off the curve) [15]: ~0.2 µg/mL

B7: 11F11 (Fab, V domains shown)
VH: B1 VH
VL: B1 VL
notes: also called Fab of 11F11; 11F11 Fab
binding result (recombinant human RSPO3 [8]): no binding
binding result (cynomolgus RSPO3 [9]): no binding
binding result (mouse RSPO3 [10]): no binding
binding result (mouse RSPO2 [11]): no binding
Kd (recombinant human RSPO2 [13]): 63 nM

B8: 49G5 (antibody, V domains shown)
VH: QVQLKESGPGLVQPSQTLSLTCTVSGFSLTSYNIHWVRQPPGKGLEWMGAVWRGGGTYYNSNLKSRVIITRDTSKSQVLLKLNNLQHEDTAMYYCAREELRYVYFDVWGQGIQVTVSS
VL: B2 VL with V3L, H28Y, S29N, N31Y, V50L, R51S, T61I, L93V, L100V, L109V
notes: also called monoclonal antibody 49G5
percentage of cells staining [16]: 95%
binding result [17]: no binding
percentage of cells staining [18]: 40%
percentage of cells staining [19]: 60%
binding result [1]: no binding
binding result [20]: no binding
